Values quoted from earlier work as cited in paper PMC11969061.

Molecular target: BTN3A IgV (Homo sapiens) (UniProt O00481)
UniProt O00481, sequence (O00481 30-139): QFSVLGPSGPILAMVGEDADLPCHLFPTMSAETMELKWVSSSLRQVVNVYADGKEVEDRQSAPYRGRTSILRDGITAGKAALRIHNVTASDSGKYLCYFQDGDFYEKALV

BTN2A1 IgV (from UniProt Q7KYR7)
Kd: 600 µM
